Assay results as given in PMC3918674 (Journal of molecular biology, 2013).
Where no end group is shown, it is not given here.

B1: Escherichia coli ClpP (enzyme)
chain: not shown

Tests used:
SEC = target: the molecule itself; experiment: SEC
[1] = target: ClpAP complex (hexameric ClpA associated with tetradecameric ClpP) (Escherichia coli, UniProt P0ABH9 1-758; P0A6G7 15-207); experiment: single-turnover stopped-flow fluorescence
Sequence of ClpAP complex (hexameric ClpA associated with tetradecameric ClpP) (P0ABH9 whole entry, chain 1 of 2): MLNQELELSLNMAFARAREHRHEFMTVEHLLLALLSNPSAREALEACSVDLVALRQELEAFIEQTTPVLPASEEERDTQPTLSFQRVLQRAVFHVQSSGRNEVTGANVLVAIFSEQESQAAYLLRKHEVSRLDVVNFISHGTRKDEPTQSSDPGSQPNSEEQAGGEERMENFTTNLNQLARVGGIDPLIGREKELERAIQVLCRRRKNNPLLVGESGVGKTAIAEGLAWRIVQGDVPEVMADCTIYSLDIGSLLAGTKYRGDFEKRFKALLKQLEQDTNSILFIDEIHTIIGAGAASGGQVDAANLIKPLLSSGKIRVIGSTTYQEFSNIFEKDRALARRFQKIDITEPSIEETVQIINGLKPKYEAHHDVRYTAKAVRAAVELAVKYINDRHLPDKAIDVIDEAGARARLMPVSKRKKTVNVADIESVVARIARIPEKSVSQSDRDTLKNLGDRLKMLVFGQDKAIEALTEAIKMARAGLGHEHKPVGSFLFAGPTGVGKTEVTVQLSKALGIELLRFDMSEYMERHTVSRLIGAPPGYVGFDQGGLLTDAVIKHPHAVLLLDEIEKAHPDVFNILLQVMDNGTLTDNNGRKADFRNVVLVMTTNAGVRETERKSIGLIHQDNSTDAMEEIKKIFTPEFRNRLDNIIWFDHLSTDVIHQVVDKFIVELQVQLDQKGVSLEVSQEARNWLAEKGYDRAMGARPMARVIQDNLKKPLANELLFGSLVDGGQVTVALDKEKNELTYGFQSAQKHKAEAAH
Sequence of ClpAP complex (hexameric ClpA associated with tetradecameric ClpP) (P0A6G7 15-207, chain 2 of 2): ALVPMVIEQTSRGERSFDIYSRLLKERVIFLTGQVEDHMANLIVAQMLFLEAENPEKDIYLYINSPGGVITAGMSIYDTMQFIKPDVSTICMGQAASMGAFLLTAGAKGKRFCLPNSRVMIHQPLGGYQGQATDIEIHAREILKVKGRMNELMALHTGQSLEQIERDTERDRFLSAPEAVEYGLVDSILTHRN

Binder | stoichiometry N (SEC) | binding result [1]
B1 | 7 | 
C(fluorescein‑5‑maleimide)TKSAANLKVKELRSKKKLAANDENYALAA [N-Cys-30 polypeptide translocation substrate] |  | binds
C(fluorescein‑5‑maleimide)LILHNKQLGMTGEVSFQAANTKSAANLKVKELRSKKKLAANDENYALAA [N-Cys-50 polypeptide translocation substrate] |  | binds
C(fluorescein‑5‑maleimide)TGEVSFQAANTKSAANLKVKELRSKKKLAANDENYALAA [N-Cys-40 polypeptide translocation substrate] |  | binds
